Results as given in publication PMC11555413 (Nature Communications, 2024).

B1: Myc-APRIL (ligand, UniProt O75888 116-250, looked up)
chain: SVLHLVPINATSKDDSDVTEVMWQPALRRGRGLQAQGYGVRIQDAGVYLLYSQVLFQDVTFTMGQVVSREGQGRQETLFRCIRSMPSHPDRAYNSCYSAGVFHLHQGDILSVIIPRARAKLNLSPHGTFLGFVKL
B2: APRIL-Myc (ligand, UniProt O75888 116-250, looked up)
chain: B1 chain

Target: the molecule itself
Assay: SEC

| Protein | stoichiometry N |
| --- | --- |
| B1 | 3 |
| B2 | 3 |
